Test [1] has as its system IgE antibodies in serum. In words: ELISA of Fmoc-synthesised peptides with patient serum. The test is classed as binding, human. To be noted: serum of cases having food allergies to chicken egg and soybean in combination. The protocol:
The peptides of the aforementioned SEQ ID NOs were prepared by the Fmoc method and studied for their binding activity against IgE antibodies in serum by ELISA. On the basis of RXRXXKXX (SEQ ID NO: 329), the peptides of chicken egg RGREDKMK and soybean RFREDKEE were prepared, and their binding activity against IgE antibodies were confirmed by ELISA using the serum of cases having food allergies to chicken egg and soybean in combination.

The subject of test [2] is IgE antibody in the serum of an egg allergic patient. As to the kind of experiment: Immunoblotting of two-dimensional electrophoresis of chicken egg (raw egg) yolk proteins with patient serum. The test is classed as binding, human. As to the method:
Identification of antigens by immunoblotting was carried out by taking all the steps up to the step of “Second-dimensional SDS-PAGE” as described above in Example 1, followed by the steps of “Transfer to membrane”, “Immunoblotting” and “Analysis” as described below.
Transfer to membrane was done using the following transfer system and transfer buffer. • Transfer system: XCell SureLock Mini-Cell and XCell II Blot Module (produced by Life Technologies) • Transfer buffer: NuPAGE Transfer Buffer (X20) (produced by Life Technologies), used in a form diluted 20-fold with milliQ water.
To be specific, proteins in the two-dimensional electrophoresis gels were transferred to a membrane (PVDF membrane) according to the following procedure.
(1) The PVDF membrane was immersed in 100% methanol followed by milliQ water, and then moved into the transfer buffer to hydrophilize the PVDF membrane.
(2) After sponge, filter paper, gels treated by second-dimensional SDS-PAGE, the hydrophilized PVDF membrane, filter paper, and sponge were put in place in this order, the transfer system was energized at a constant voltage of 30 V for one hour.
Immunoblotting of the membrane was carried out using, as a primary antibody, a serum sample from patient (patient 1) with an egg allergy or a serum sample from a non-egg-allergic subject. This egg-allergic patient was a patient diagnosed with food-dependent exercise-induced anaphylaxis (FDEIA) caused by chicken eggs.
Immunoblotting of the membrane was carried out according to the following procedure. • (1) The transferred membrane was shaken in a 5% skim milk/PBST solution (a PBS buffer containing 0.1% Tween 20 nonionic surfactant) at room temperature for one hour. • (2) The membrane was left to stand in a solution of 5% primary antibody serum in 5% skim milk/PBST at room temperature for one hour. • (3) The membrane was washed with a PBST solution (5 min.×3 times). • (4) The membrane was left to stand in a 1:5000 dilution of the secondary antibody, anti-human IgE-HRP (horseradish peroxidase), with a 5% skim milk/PBST solution at room temperature for one hour. • (5) The membrane was washed with a PBST solution (5 min.×3 times). • (6) The membrane was left to stand in Pierce Western Blotting Substrate Plus (produced by Thermo) for 5 minutes. […]
The immunoblots obtained with the serum from the egg-allergic patient were compared with those obtained with the control serum from the non-egg-allergic subject. By immunoblotting of the proteins contained in the raw yolk using the serum from the egg-allergic patient (FIG. 2), three spots were detected, which are different from the spots detected when the serum of the non-egg-allergic subject was used and different from those of the known chicken egg allergen proteins.
Identification of antigens by immunoblotting was carried out using the sera of three other egg-allergic patients (patient 2, patient 3 and patient 4) in the same manner as in Example 2. By immunoblotting of the proteins contained in the raw yolk using the serum from the egg-allergic patients (FIG. 4 for patient 2, FIG. 5 for patient 3, and FIG. 6 for patient 4), spots were detected, which are different from the spots detected when the serum of the non-egg-allergic subject was used and different from those of the known chicken egg allergen proteins. To be specific, spots 4 to 8 for patient 2, spots 9 and 10 for patient 3, and spot 11 for patient 4 were detected.

Where [3] appears, read: serum of egg-allergic patient 3.

“Also recorded” adds a separate entry of the source.

In the case of RFREDKEE, the “binding activity against IgE antibodies by ELISA” value in test [1] is “patient-specific binding activity was able to be confirmed”.
As to RGREDKMK, the “binding activity against IgE antibodies by ELISA” value in test [1] is listed as “patient-specific binding activity was able to be confirmed”.

B1: Apolipoprotein B precursor [Spot 9] (protein, listed as Gallus gallus)
chain: MGPVRLLLLLLLLSSGVLTQEGTPENGNPGCSKDAARFKSLRKYVYLYEAETSSGITGTADSRSGSKITCKVELEVPQLCQFILRTMHCSLRETFGVDSERRAMLRKSKNSDDFANAMSKHELRFSTQDGTKVKLYPEKDEPLNVLNLKRGIISALLAPTETEENIKTISMDTVYGKCDSEVEFKSRRGSVAEDISINRNLKACDNFSPIRDYVSPVAIVKGLNIPLSTLLSSTQSCHYSIDAKKKHIRDVVCSEKHLFLPSSYKNQYGMMTEVNQTLKLEDNQRMNNRNPDGDELEEKGLALESTDAK
With B1, the “specific reaction of serum IgE with spot in immunoblot” value (“specific reaction of serum IgE” below) in test [2] (setting [3]) was “specifically reacted; also recorded: detected”.

B2: Vitellogenin-2 precursor (protein, listed as Gallus gallus)
chain: TPVLAAFLHGISNNKKTGGLQLVVYADTDSVRPRVQVFVTNLTDSSKWKLCADASVRNAHKAVAYVKWGWDCRDYKVSTELVTGRFAGHPAAQVKLEWPKVPSNVRSVVEWFYEFVPGAAFMLGFSERMDKNPSRQARMVVALTSPRTCDVVVKLPDIILYQKAVRLPLSLPVGPRIPASELQPPIWNVFAEAPSAVLENLKARCSVSYNKIKTFNEVKFNYSMPANCYHILVQDCSSELKFLVMMK
For the molecule B2, the “specific reaction of serum IgE” value in test [2] (serum of egg-allergic patient 4) is “specifically reacted; also recorded: detected”.

B3: Apolipoprotein B precursor [Spot 10] (protein, listed as Gallus gallus)
chain: LDGSTSLTRKRGLKLATALSLNNNKFLGGSHDNSISLTKKNLEASMITNAKINTPVFKMNFSQELSGNTKSKPTISSGLKVTYDFTTPKHGISAKGGVAHKLALETLTSYLSVETSTKGNIDGAIYTGNSFSGALDHEANTYLHANGVRSSLKLEANSKVDGLWNSEMKEILAVEASTSRVYAVWEHNGKNFARYTPLFTTTGSQKCKATFELAPWTVSADLQIQVTQPNSFLDTASVNQVVLMKVSPTDQKVGWKGEGQIQSLSLRHDMQLSNEKSNAKFDISGSLEGYMDFLKRINCAISKKSLWDILKLDVTTVADRKHYLNASASFIYRKSDDGYFFPMPVIR
Consider B3, for which, in test [2] (setting [3]), the “specific reaction of serum IgE” value is “specifically reacted; also recorded: detected”.
